Reference: patent publication US20150344570A1 (published 2015)
Substitutions are numbered along the chain they refer to. Blank lines part the entries; values can stand above or below the binder they belong to.

Key:
[1] = target: T1, FcγRIIa H extracellular domain with C-terminal His tag (human, UniProt P12318 34-217); experiment: SPR (Biacore); ratio KD for FcγRIIb / KD for FcγRIIa H
T1 construct: extracellular domain; Soluble receptor, H131 allotype; also called FcgRIIa H; FcgRIIaH; not shown: His tag at the C terminus
T1 sequence (looked up): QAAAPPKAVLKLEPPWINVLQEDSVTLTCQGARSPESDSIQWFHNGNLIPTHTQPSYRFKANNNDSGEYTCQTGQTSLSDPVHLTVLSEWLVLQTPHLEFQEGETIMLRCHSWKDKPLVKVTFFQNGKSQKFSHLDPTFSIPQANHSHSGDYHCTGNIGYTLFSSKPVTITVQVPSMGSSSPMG
Experimental: (§1) These antibodies were assessed for the binding activity to each FcγR according to the method described in Reference Example 2.
(§2) Analysis of interaction between objective antibody and the FcγR was carried out using Biacore T100 (GE Healthcare). HBS-EP+ (GE Healthcare) was used as the running buffer, and the measurement temperature was set to 25° C. Chips produced by immobilizing the antigen peptide by the amine coupling method to a Series S Sencor Chip CM5 (GE Healthcare), or alternatively, chips produced by allowing preliminarily biotinylated antigen peptides to interact with and immobilize onto a Series S Sensor Chip SA (certified) (GE Healthcare) were used. Antibodies of interest were captured onto an antigen peptide-immobilized chip, and allowed to interact to each FcγR diluted with running buffer. To regenerate and repeatedly use the chip, the antibodies captured on the chip were washed off by reacting 10 mM glycine-HCl, pH 1.5.

[2] = target: T2, FcγRIIa R extracellular domain with C-terminal His tag (human, UniProt P12318 34-217); experiment: SPR (Biacore); ratio KD for FcγRIIb / KD for FcγRIIa R
T2 construct: extracellular domain; Soluble receptor, R131 allotype; also called FcgRIIa R; FcgRIIaR; not shown: His tag at the C terminus
T2 sequence (looked up): T1 sequence (looked up) with H134R
Experimental: as §1, §2

[3] = target: T3, FcgRIa (human, UniProt P12314 16-292); experiment: SPR (Biacore), antibody captured, FcgR extracellular domain as analyte
T3 construct: extracellular domain; also called FcγRIa; FcγRI; not shown: His tag at the C terminus
Experimental: (§3) Next, the amino acid at position 330 was examined. The A330M alteration has been introduced into H240-Hl076 of H240-Kn125/H240-Hl076/L73-k0. […] L73-k0 was used as the common antibody L chain. Binding of the produced variants to FcgRIa, FcgRIIaR, FcgRIIaH, FcgRIIb, FcgRIIIaF, and FcgRIIIaV was measured according to the method of Reference Example 8.
(§4) Analysis of interaction between objective antibody and the FcγR was carried out using Biacore T100 (GE Healthcare), Biacore T200, Biacore A100, and Biacore 4000. HBS-EP+ (GE Healthcare) was used as the running buffer, and the measurement temperature was set to 25° C. Chips produced by immobilizing the antigen peptide by the amine coupling method to a Series S sensor Chip CM5 (GE Healthcare), chips produced by allowing preliminarily biotinylated antigen peptides to interact with and immobilize onto a Series S Sensor Chip SA (certified) (GE Healthcare), chips produced by immobilizing Protein L (ACTIGEN, BioVision) to Series S Sencor Chip CM5 (GE Healthcare), or chips produced by immobilizing Protein A/G (Thermo Scientific) to Series S Sencor Chip CM5 (GE Healthcare) were used. Antibodies of interest were captured onto these chips, and allowed to interact to each FcγR diluted with running buffer. To regenerate and repeatedly use the chip, the antibodies captured onto the chip were washed off by reacting 10 mM glycine-HCl, pH 1.5.

[4] = target: T4, FcgRIIaR (human, UniProt P12318 34-217); experiment: as above
T4 construct: extracellular domain; also called FcγRIIa R; FcγRIIa type R; not shown: His tag at the C terminus
T4 sequence (looked up): T1 sequence (looked up) with H134R
Experimental: as §3, §4

[5] = target: T5, FcgRIIaH (human, UniProt P12318 34-217); experiment: as above
T5 construct: extracellular domain; also called FcγRIIa H; FcγRIIa type H; not shown: His tag at the C terminus
T5 sequence (looked up): T1 sequence (looked up)
Experimental: as §3, §4

[6] = target: T6, FcgRIIb (human, UniProt P31994 43-217); experiment: as above
T6 construct: extracellular domain; also called FcγRIIb; 2b; not shown: His tag at the C terminus
T6 sequence (looked up): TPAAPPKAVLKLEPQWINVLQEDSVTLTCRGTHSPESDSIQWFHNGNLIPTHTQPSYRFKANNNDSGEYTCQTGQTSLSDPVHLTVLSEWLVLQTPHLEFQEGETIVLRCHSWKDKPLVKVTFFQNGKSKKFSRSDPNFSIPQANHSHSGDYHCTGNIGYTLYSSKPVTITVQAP
Experimental: as §3, §4

[7] = target: T7, FcgRIIIaF (human, UniProt P08637 17-208); experiment: as above
T7 construct: extracellular domain; Polymorphic site after J. Clin. Invest; also called FcγRIIIa F; 3aF; not shown: His tag at the C terminus
Experimental: as §3, §4

[8] = target: T8, FcgRIIIaV (human, UniProt P08637 17-208); experiment: as above
T8 construct: extracellular domain; Polymorphic site after J. Clin. Invest; also called FcγRIIIa V; 3aV; not shown: His tag at the C terminus
Experimental: as §3, §4

[9] = target: T4, FcgRIIaR; experiment: SPR (Biacore); KD of H240-Kn033/H240-Hl033/L73-k0 divided by KD of the variant
Experimental: as §3, §4

[10] = target: T5, FcgRIIaH; experiment: as above
Experimental: as §3, §4

[11] = target: T6, FcgRIIb; experiment: as above
Experimental: as §3, §4

[12] = target: T7, FcgRIIIaF; experiment: as above
Experimental: as §3, §4

[13] = target: T8, FcgRIIIaV; experiment: as above
Experimental: as §3, §4

T8 sequence (P08637 17-208 F176V limits assumed): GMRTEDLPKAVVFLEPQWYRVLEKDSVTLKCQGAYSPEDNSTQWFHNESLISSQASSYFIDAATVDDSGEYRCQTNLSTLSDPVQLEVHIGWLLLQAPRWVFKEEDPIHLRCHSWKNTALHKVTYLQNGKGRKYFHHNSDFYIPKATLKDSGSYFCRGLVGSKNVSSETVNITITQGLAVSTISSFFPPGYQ
T3 sequence (P12314 16-292): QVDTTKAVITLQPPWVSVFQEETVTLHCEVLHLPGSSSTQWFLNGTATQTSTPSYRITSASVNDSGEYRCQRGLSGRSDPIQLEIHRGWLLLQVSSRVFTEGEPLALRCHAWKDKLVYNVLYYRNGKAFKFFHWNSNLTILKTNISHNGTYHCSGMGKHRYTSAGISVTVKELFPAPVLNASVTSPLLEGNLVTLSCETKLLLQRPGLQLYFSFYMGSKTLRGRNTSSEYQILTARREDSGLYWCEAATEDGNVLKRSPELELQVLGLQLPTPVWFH
T7 sequence (P08637 17-208): as the sequence (P08637 17-208 F176V limits assumed) above, with V160F counted along it

Kd [3]: 0.066 nM
Kd [4]: 420 nM
Kd [5]: 140 nM
Kd [6]: 3900 nM
Kd [7]: 1.3 nM
Kd [8]: 0.26 nM
fold 2aR [9]: 1.8 fold
fold 2aH [10]: 3.7 fold
fold 2b [11]: 0.8 fold
fold 3aF [12]: 223 fold
fold 3aV [13]: 185 fold
B3: H240-Kn125/H240-Hl076/L73-k0 (antibody, human IgG1, kappa)
heavy 1: QDQLVQSGAEVKKPGASVKVSCKASGFNIKDTYIQWVRQAPGQGLEWMGRIDPLRKQTKYREKFEGRVTITADTSTNTAYMELSSLRSEDTAVYYCVRSGREFDYWGQGTLVTVSSASTKGPSVFPLAPSSKSTSGGTAALGCLVKDYFPEPVTVSWNSGALTSGVHTFPAVLQSSGLYSLSSVVTVPSSSLGTQTYICNVNHKPSNTKVDKKVEPKSCDKTHTCPPCPAPEYQWGPMVFLFPPKPKDTLMISRTPEVTCVVVDVSDEEPEVKFNWYVDGVEVHNAKTKPREEQYNATYRVVSVLTVLHQDWLNGKEYKCKVSNKALPAPIEKTISKAKGQPREPQVCTLPPSRDELTKNQVSLWCLVKGFYPSDIAVEWESNGQPENNYKTTPPVLDSDGSFFLYSKLTVDKSRWQQGNVFSCSVMHEALHNHYTQKSLSLSP
heavy 2: QDQLVQSGAEVKKPGASVKVSCKASGFNIKDTYIQWVRQAPGQGLEWMGRIDPLRKQTKYREKFEGRVTITADTSTNTAYMELSSLRSEDTAVYYCVRSGREFDYWGQGTLVTVSSASTKGPSVFPLAPSSKSTSGGTAALGCLVKDYFPEPVTVSWNSGALTSGVHTFPAVLQSSGLYSLSSVVTVPSSSLGTQTYICNVNHKPSNTKVDKKVEPKSCDKTHTCPPCPAPELLGGPSVFLFPPKPKDTLMISRTPEVTCVVVDVSHEEPEVKFNWYVDGVEVHNAKTKPREEQYNSTYRVVSVLTVLHQDWLNGKEYKCKVSNDALPMPIEETISKAKGQPREPQVYTLPPSRCELTKNQVSLSCAVKGFYPSDIAVEWESNGQPENNYKTTPPVLDSDGSFFLVSKLTVDKSRWQQGNVFSCSVMHEALHNHYTQKSLSLSP
light: DIQMTQSPSSLSASVGDRVTITCRASQDIHKYIAWYQQKPGQAPRLLIQYTSTLQPGVPSRFSGSGSGTDYTFTISSLQPEDIATYYCLQYEQLRTFGGGTKVEIKRTVAAPSVFIFPPSDEQLKSGTASVVCLLNNFYPREAKVQWKVDNALQSGNSQESVTEQDSKDSTYSLSSTLTLSKADYEKHKVYACEVTHQGLSSPVTKSFNRGEC
notes: Template of the position 330 series

Kd [3]: 0.065 nM
Kd [4]: 650 nM
Kd [5]: 150 nM
Kd [6]: 6900 nM
Kd [7]: 4.1 nM
Kd [8]: 0.48 nM
fold 2aR [9]: 1.1 fold
fold 2aH [10]: 3.5 fold
fold 2b [11]: 0.5 fold
fold 3aF [12]: 70.7 fold
fold 3aV [13]: 100 fold
B4: H240-Kn125/H240-Hl210/L73-k0 (antibody, human IgG1, kappa)
heavy 1: B3 heavy 1
heavy 2: B3 heavy 2 with M329A
light: B3 light

Second part, the binder before the results:

B1: GpH7-Kn045/GpH7-Hl055/GpL16-k0 (antibody, human IgG1, kappa)
heavy 1: QVQLVQSGAEVKKPGASVTVSCKASGYTFTDYEMHWIRQPPGEGLEWIGAIDPKTGDTAYSESFQDRVTLTADKSTSTAYMELSSLTSEDTAVYYCTRFYSYTYWGQGTLVTVSSASTKGPSVFPLAPSSKSTSGGTAALGCLVKDYFPEPVTVSWNSGALTSGVHTFPAVLQSSGLYSLSSVVTVPSSSLGTQTYICNVNHKPSNTKVDKKVEPKSCDKTHTCPPCPAPEYYAGPSVFLFPPKPKDTLMISRTPEVTCVVVDVSDEDPEVKFNWYVDGVEVHNAKTKPREEQYNATYRVVSVLTVLHQDWLNGKEYKCKVSNKALPAPIEKTISKAKGQPREPQVCTLPPSRDELTKNQVSLWCLVKGFYPSDIAVEWESNGQPENNYKTTPPVLDSDGSFFLYSKLTVDKSRWQQGNVFSCSVMHEALHNHYTQKSLSLSP
heavy 2: QVQLVQSGAEVKKPGASVTVSCKASGYTFTDYEMHWIRQPPGEGLEWIGAIDPKTGDTAYSESFQDRVTLTADKSTSTAYMELSSLTSEDTAVYYCTRFYSYTYWGQGTLVTVSSASTKGPSVFPLAPSSKSTSGGTAALGCLVKDYFPEPVTVSWNSGALTSGVHTFPAVLQSSGLYSLSSVVTVPSSSLGTQTYICNVNHKPSNTKVDKKVEPKSCDKTHTCPPCPAPELLAGPDVFLFPPKPKDTLMISRTPEVTCVVVDVSHEDPEVKFNWYVDGVEVHNAKTKPREELYNSTYRVVSVLTVLHQDWLNGKEYKCKVSNKALPMPEEKTISKAKGQPREPQVYTLPPSRCELTKNQVSLSCAVKGFYPSDIAVEWESNGQPENNYKTTPPVLDSDGSFFLVSKLTVDKSRWQQGNVFSCSVMHEALHNHYTQKSLSLSP
light: DIVMTQSPLSLPVTPGEPASISCQASESLVHSNRNTYLHWYLQKPGQSPQLLIYKVSNRFSGVPDRFSGSGSGTDFTLKISRVEAEDVGVYYCSQNTHVPPTFGQGTKVEIERTVAAPSVFIFPPSDEQLKSGTASVVCLLNNFYPREAKVQWKVDNALQSGNSQESVTEQDSKDSTYSLSSTLTLSKADYEKHKVYACEVTHQGLSSPVTKSFNRGEC
notes: Heterodimerized anti-glypican-3 IgG1, knobs-into-holes; also called Kn045/Hl055
A/I ratio [1]: 8.3
A/I ratio [2]: 18

B2: GpH7-Kn056/GpH7-Hl055/GpL16-k0 (antibody, human IgG1, kappa)
heavy 1: B1 heavy 1 with Q293L
heavy 2: B1 heavy 2
light: B1 light
notes: Heterodimerized anti-glypican-3 IgG1, knobs-into-holes; also called Kn056/Hl055
A/I ratio [1]: 8.7
A/I ratio [2]: 16

B5: H240-Kn125/H240-Hl214/L73-k0 (antibody, human IgG1, kappa)
heavy 1: B3 heavy 1
heavy 2: B3 heavy 2 with M329F
light: B3 light
Kd [3]: 0.08 nM
Kd [4]: 450 nM
Kd [5]: 150 nM
Kd [6]: 4400 nM
Kd [7]: 1.6 nM
Kd [8]: 0.38 nM
fold 2aR [9]: 1.6 fold
fold 2aH [10]: 3.5 fold
fold 2b [11]: 0.8 fold
fold 3aF [12]: 181 fold
fold 3aV [13]: 126 fold
